For orientation: IC50 means the point on the concentration scale where inhibition reaches its midpoint. Read a high IC50 as lower potency.

The values below come from US20050169919A1 (published 2005).

B1: B7 antigen (B7-1) stably expressed on CHO cells (ligand, human, UniProt P33681 35-288, looked up)
chain: VIHVTKEVKEVATLSCGHNVSVEELAQTRIYWQKEKKMVLTMMSGDMNIWPEYKNRTIFDITNNLSIVILALRPSDEGTYECVVLKYEKDAFKREHLAEVTLSVKADFPTPSISDFEIPTSNIRRIICSTSGGFPEPHLSWLENGEELNAINTTVSQDPETELYAVSSKLDFNMTTNHSFMCLIKYGHLRVNQTFNWNTTKQEHFPDNLLPSWAITLISVNGIFVICCLTYCFAPRCRERRRNERLRRESVRPV
notes: whole, on cells; also called B7/BB-1; CD80

The target of assay [1] is B7Ig fusion protein (human) (UniProt P33681). Briefly: solid phase competition for binding of 125I-B7Ig (4 nM) to immobilized CTLA4Ig.
In assay [2] the target is B7 antigen on lymphoblastoid cell line (PM LCL) (human) (UniProt P33681). The assay can be described thus: cell-based or functional assay.
The target of assay [3] is T1, CTLA4Ig fusion protein (human, UniProt P01857-1 99-330 = IgG part).
T1 construct: domain: hinge, CH2 and CH3 regions; also called wild-type CTLA4Ig; human CTLA4Ig
The assay can be described thus: immunoprecipitation from 125I surface-labeled B7+ CHO extract, SDS-PAGE.
Description: Immunoprecipitation Analysis and SDS PAGE. Cells were surface-labeled with ¹²⁵I and subjected to immunoprecipitation analysis. […] SDS-PAGE chromatography was performed on linear acrylamide gradients gels with stacking gels of 5% acrylamide. Gels were stained with Coomassie Blue, destained, and photographed or dried and exposed to X ray film (Kodak XAR-5).
B7⁺ CHO and PM LCL cells were surface-labeled with ¹²⁵I, and extracted with a non-ionic detergent solution as described above. […] Washed immunoprecipitates were then analyzed by SDS-PAGE (10-20% acrylamide gradient) under reducing conditions. The gel was then dried and subjected to autoradiography.

Assay [4] addresses B1. The assay can be described thus: indirect cell binding enzyme immunoassay on ethanol-fixed B7-1+ CHO cells.
Description: Round bottom tissue culture treated 96 well microtiter plates (Corning, Corning, N.Y.) were seeded with B7-1 positive CHO cells at 10³ cells/well.

The molecule “murine monoclonal antibody BB-1 (anti-B7 antigen)” registered an IC50 in assay [1] of 22 nM. Moreover, the inhibition of Th-induced IgM production by allogeneic CD19+ B cells (ELISA) in assay [2] was 65%. Turning to B1, in assay [3], the binding result is on record as “binds”.

B2: CTLA4/CD28Ig hybrid fusion protein HS6 (Fc fusion, human)
chain: AMHVAQPAVVLASSRGIASFVCEYSYNLFSREVRVTVLRQADSQVTEVCAATYMMGNELTFLDDSICTGTSSGNQVNLTIQGLRAMDTGLYICKVELMYPPPYYLGIGNGTQIYVIDPEPCPD
notes: range 25-32; not shown: hinge and constant regions of human IgG1, hinge cysteines mutated; junction printed DQE
For B2, in assay [4], the binding result is listed as “binds”.

B3: CTLA4/CD28Ig hybrid fusion protein HS2 (Fc fusion, human)
chain: AMHVAQPAVVLASSRGIASFVCKYSYNLFSREFRASLHKGLDSAVEVCVVYGNYSQQLQVYSKTGFNCDGKLGNESVTFYLQNLYVNQTDIYFCKIELMYPPPYYLGIGNGTQIYVIDPEPCPD
notes: range 23-96; not shown: hinge and constant regions of human IgG1, hinge cysteines mutated; junction printed DQE
With B3, the binding result in assay [4] is listed as “binds”.
